Target: T1, FtsY NG domain (SRP receptor FtsY, residues 196-498) (E. coli, UniProt P10121 196-497)
T1 sequence (looked up): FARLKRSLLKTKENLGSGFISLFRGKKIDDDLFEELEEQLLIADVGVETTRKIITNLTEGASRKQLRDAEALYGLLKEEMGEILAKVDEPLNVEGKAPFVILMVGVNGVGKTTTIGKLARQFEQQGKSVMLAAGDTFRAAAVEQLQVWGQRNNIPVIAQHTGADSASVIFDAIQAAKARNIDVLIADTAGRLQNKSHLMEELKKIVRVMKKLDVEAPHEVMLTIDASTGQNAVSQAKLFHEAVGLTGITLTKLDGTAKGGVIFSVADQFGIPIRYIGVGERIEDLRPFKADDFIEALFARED
Assay: SEC

B1: Ffh NG domain (signal recognition particle protein Ffh, residues 1-298) (domain or fragment, E. coli, UniProt P0AGD7 1-298, looked up)
chain: MFDNLTDRLSRTLRNISGRGRLTEDNVKDTLREVRMALLEADVALPVVREFINRVKEKAVGHEVNKSLTPGQEFVKIVRNELVAAMGEENQTLNLAAQPPAVVLMAGLQGAGKTTSVGKLGKFLREKHKKKVLVVSADVYRPAAIKQLETLAEQVGVDFFPSDVGQKPVDIVNAALKEAKLKFYDVLLVDTAGRLHVDEAMMDEIKQVHASINPVETLFVVDAMTGQDAANTAKAFNEALPLTGVVLTKVDGDARGGAALSIRHITGKPIKFLGVGEKTEALEPFHPDRIASRILGMG
binding result: binds

Reference: publication PMC3910249 (Molecular cell, 2013)
